Experimental findings from patent publication US20180142007A1 (AXON NEUROSCIENCE, published 2018) are described below.

Assay [1] concerns the target T1, misdisordered truncated tau 151-391/4R (human, UniProt P10636 468-708). As to the kind of experiment: cell-based or functional assay.
In assay [2] the target is T1, misdisordered truncated tau 151-391/4R. As to the kind of experiment: SPR Biacore T200, antibody captured by anti-IgG on CM5 chip, tau 151-391/4R as analyte, steady state analysis. As to the method:
Antibody affinity determination was carried out by SPR analysis using a Biacore T200. Anti-human IgG (GE Healthcare, cat. no. BR-1008-39) or anti-murine IgG (GE Healthcare, cat. no. BR-1008-38) was covalently immobilized to a CM5 chip (Cat. no. BR-1005-30) to the point of saturation and in accordance with the manufacturer's instructions. […] Association time was set at 150 sec and disassociation time 300 sec. Tau concentrations were chosen empirically in order to obtain curvature during the association phase. The kinetics of binding/dissociation was initially analyzed according to the 1:1 interaction model using BIAcore T200 evaluation software package 2.0.

Assay [3] has the same target. As to the kind of experiment: assay not named in the sentence (tau binding assay of the examples).

Positions count from the first letter of the chain named.

T1 sequence (P10636 468-708): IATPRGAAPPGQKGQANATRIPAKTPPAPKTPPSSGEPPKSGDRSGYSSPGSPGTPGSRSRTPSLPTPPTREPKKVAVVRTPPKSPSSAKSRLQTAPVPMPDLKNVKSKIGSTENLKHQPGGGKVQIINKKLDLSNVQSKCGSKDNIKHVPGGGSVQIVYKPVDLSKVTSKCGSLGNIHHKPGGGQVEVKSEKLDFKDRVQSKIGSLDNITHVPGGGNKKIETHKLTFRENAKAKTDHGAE

B1: chimeric DC8E8 (isotype not stated where tested) (antibody)
VH: QVQLQQSGPELVKPGTSVKMPCKASGYIFTDYVISWVKQRTGQGLEWIGEIFPRSGSTYYNEKFKGKATLTADKSSNTAYMQLSSVTSEDSAVYFCARDYYGTSFAMDYWGQGTSVTVSS
light: DIVMSQSPSSLAVSAGEKVTMSCKSSQSLLNSRTRKNYLAWYQQKPGQSPKLLIYWASTRESGVPDRFTGSGSGTDFTLTISSVQAEDLAVYYCKQSFYLRTFGGGTKLDIKRTVAAPSVFIFPPSDEQLKSGTASVVCLLNNFYPREAKVQWKVDNALQSGNSQESVTEQDSKDSTYSLSSTLTLSKADYEKHKVYACEVTHQGLSSPVTKSFNRGEC
notes: Whole chimeric antibody with human constant regions; also called chimeric antibody
Consider B1, for which the “amount of fibrillized pathological tau forms (Thioflavin T fluorescence), antibody at 10 uM” value in assay [1] was less than 5.9%. In assay [2], the dissociation constant (Kd) was approximately 10 nM.

B2: AX038, humanized DC8E8 RHM/RKB (isotype not stated where tested) (antibody, V domains shown)
VH: QVQLVQSGAEVKKPGSSVKVSCKASGYIFSDYVISWVRQAPGQGLEWMGEIFPRSGSTYYNEKFKGRVTITADKSTSTAYMELSSLRSEDTAVYYCARDYYGTSFAMDYWGQGTLVTVSS
VL: DIVMSQSPLSLPVTPGEPASISCKSSQSLLNSRTRKNYLAWYLQKPGQSPQLLIYWASTRESGVPDRFTGSGSGTDFTLKISRVEAEDVGVYYCKQSFYLRTFGQGTKVEIKR
notes: also called RHM version
Consider B2, for which, in assay [3], the binding result is listed as “binds”.

B3: AX001, humanized DC8E8 RHA/RKA (isotype not stated where tested) (antibody, V domains shown)
VH: B2 VH with Y27G, I28T
VL: B2 VL with S5T
notes: also called initial humanized version
On to B3, for which the “fold decrease in binding affinity relative to chimeric DC8E8” value in assay [3] was found to be 10 fold.

B4: AX037, humanized DC8E8 RHM/RKA (isotype not stated where tested) (antibody, V domains shown)
VH: B2 VH
VL: B2 VL with S5T
notes: also called RHM version
As to B4, the binding result in assay [3] is “binds”.

B5: AX016, humanized DC8E8 RHD/RKB (isotype not stated where tested) (antibody)
VH: B2 VH with I28T
light: DIVMSQSPLSLPVTPGEPASISCKSSQSLLNSRTRKNYLAWYLQKPGQSPQLLIYWASTRESGVPDRFTGSGSGTDFTLKISRVEAEDVGVYYCKQSFYLRTFGQGTKVEIKRTVAAPSVFIFPPSDEQLKSGTASVVCLLNNFYPREAKVQWKVDNALQSGNSQESVTEQDSKDSTYSLSSTLTLSKADYEKHKVYACEVTHQGLSSPVTKSFNRGEC
notes: also called AX016 (DB)
For B5, binding in assay [2] was characterised by a dissociation constant (Kd) of 9 nM. This counts as single-digit nanomolar.

B6: AX014, humanized DC8E8 RHB/RKB (isotype not stated where tested) (antibody)
VH: B2 VH with A9P, S21P, S30T, R38K, M48I, R67K, V68A, I70L, Y95F
light: B5 light
notes: 2 (a CDR)
In the case of B6, the binding result in assay [3] is on record as “binds”.
